Changes are numbered by the printed parent chain. In names and notes the source's numbering stands.
Legend:
[1] = tested on: MD-2 tyrosine phosphorylation; assay: LPS-induced MD-2 tyrosine phosphorylation in HEK293 cells (immunoprecipitation, anti-phosphotyrosine immunoblot); assay type: cell-based, human; conditions: pretreatment 1-2 h before LPS; HEK293 cells overexpressing TLR4 and MD-2
Protocol: 24 h later cells were left untreated (lanes 1 and 2) or stimulated with LPS (lanes 3-7). Flag-tagged proteins were immunoprecipitated with an anti-Flag Ab in cell lysates and analyzed by SDS-PAGE and immunoblotted with an anti-phosphotyrosine Ab (top panel), or an anti-Flag Ab (middle and lower panels). (B) HEK293 cells were transiently transfected with Flag-TLR4 and Flag-MD-2 (lanes 1-5). 24 hrs later, cells were pretreated for 2 hrs with herbimycin A at 0.5 μg/ml (lane 3) or 2.5 μg/ml (lane 4), or for 1 hr with 2 μM cytochalasin D (lane 5) prior to stimulation with LPS for 5 mins.
(A) HEK293 cells were transiently transfected with TLR4 and Myc-MD-2 (lanes 1-6). […] Myc-tagged proteins were immunoprecipitated with an anti-Myc Ab in cell lysates, and analyzed by SDS-PAGE and immunoblotted with an anti-phosphotyrosine Ab (top panel), or an anti-Myc Ab (lower panel). […] Cells were left untreated or stimulated with LPS for 6 hours and luciferase activity measured in cell lysates and expressed as fold induction relative to untreated cells.
Tyrosine phosphorylation of numerous proteins is induced upon stimulation with LPS and indeed the LPS receptor, TLR4, is itself tyrosine phosphorylated. […] Proteins were immunoprecipitated from cell extracts with an anti-Flag Ab and analyzed by immunoblotting with an Ab that detects proteins phosphorylated on phosphotyrosine residues. […]

TLR4 = molecular target: T1, TLR4 (Homo sapiens, UniProt O00206); assay: NF-κB luciferase reporter in HEK293 cells expressing TLR4, LPS stimulation; assay type: cell-based; conditions: for Ability to activate NF-κB upon LPS stimulation compared to wild-type MD-2: construct transfected into HEK293 TLR4/NF-κB reporter cells, LPS 6 h; for Decrease in NF-κB activity upon LPS stimulation: versus wild-type MD-2
T1 construct: expressed in transfected cells; host or cells: HEK293
Protocol: (A) HEK-293 cells stably transfected with TLR4 and a NF-κB reporter gene were treated with supernatants containing either MD-2 or MD-2s as described in the examples herein. Cells were left untreated or stimulated with LPS for 24 h. Mean relative stimulation of luciferase activity±S.D. for a representative experiment, each performed in triplicate, is shown. (B) HEK-293 cells stably transfected with TLR4 and a NF-κB reporter gene were transiently transfected with plasmids encoding for either MD-2, MD-2s or CD14 as shown. 24 h later, cells were left untreated or stimulated with LPS (250 ng/ml) for 6 h. Mean relative stimulation of luciferase activity±SD for a representative experiment, each performed in triplicate, is shown. (C) and (D) Supernatants were also collected and measured for IL-8 secretion.
(A) HEK293 cells were transiently transfected with plasmids encoding TLR4 and a NF-κB reporter gene in combination with MD-2 and MD-2s as indicated. 24 h later, cells were left untreated or incubated with LPS (250 ng/ml) for 5 h. Mean relative stimulation of luciferase activity±S.D. for a representative experiment from three separate experiments, each performed in triplicate, is shown. (B) HEK-293 cells stably transfected with TLR4 and a NF-κB reporter gene were treated with supernatants containing either MD-2 and MD-2s as depicted and left untreated or incubated with LPS for 24 h. Mean relative stimulation of luciferase activity±S.D. for a representative experiment from three separate experiments, each performed in triplicate, is shown.
HEK293 cells were transiently transfected with the expression vectors noted in combination with constructs encoding the NF-κB- and IL-8-luciferase reporter gene, and either the β-galactosidase gene or the phRL-TK report gene to normalize for transfection efficiency. In all cases, total DNA concentration was kept constant by supplementation with empty vector control. Following overnight incubation, cells were stimulated for 6 hours with 50 ng/ml LPS and then lysed, and luciferase activity was measured as described previously (Ohta et al. (2004) BIOCHEM BIOPHYS RES COMMUN 323, 1103-1108). Data are shown as mean±SD of three or more independent experiments and are reported as a percentage of LPS-stimulated NF-κB and IL-8 promoter activity, or relative luciferase activity.
The requirement for MD-2s in LPS mediated NF-κB activation was assessed. It has been shown that the soluble form of wild-type MD-2 confers LPS responsiveness to cells expressing TLR4; therefore, it was investigated if soluble MD-2s was also bioactive. Culture supernatants were obtained from HEK293 cells transiently expressing control vector, MD-2, or MD-2s, and incubated with HEK293 cells stably transfected with TLR4 and an NF-κB-dependent luciferase reporter gene.
MD-2s was tested to see if it needed to be transiently expressed in TLR4 reporter cells in order to mediate NF-κB activation following LPS stimulation. HEK293 cells stably transfected with TLR4 and an NF-κB-dependent luciferase reporter gene were transiently transfected with plasmids encoding CD14 in combination with either MD-2 or MD-2s, and subsequently treated with LPS.
HEK293 cells were transiently transfected with plasmids encoding CD14, TLR4, and wild-type MD-2 in conjunction with a plasmid encoding the NF-κB-dependent luciferase reporter gene in the presence or absence of a plasmid encoding MD-2s. […] Furthermore, we assessed the inhibitory role of soluble MD-2s following LPS stimulation. HEK293 cells stably transfected with TLR4 and an NF-κB-dependent luciferase reporter gene were incubated with supernatants obtained from HEK293 cells transiently expressing a constant amount of MD-2 with increasing concentrations of MD-2s.

T1 sequence (O00206 24-839): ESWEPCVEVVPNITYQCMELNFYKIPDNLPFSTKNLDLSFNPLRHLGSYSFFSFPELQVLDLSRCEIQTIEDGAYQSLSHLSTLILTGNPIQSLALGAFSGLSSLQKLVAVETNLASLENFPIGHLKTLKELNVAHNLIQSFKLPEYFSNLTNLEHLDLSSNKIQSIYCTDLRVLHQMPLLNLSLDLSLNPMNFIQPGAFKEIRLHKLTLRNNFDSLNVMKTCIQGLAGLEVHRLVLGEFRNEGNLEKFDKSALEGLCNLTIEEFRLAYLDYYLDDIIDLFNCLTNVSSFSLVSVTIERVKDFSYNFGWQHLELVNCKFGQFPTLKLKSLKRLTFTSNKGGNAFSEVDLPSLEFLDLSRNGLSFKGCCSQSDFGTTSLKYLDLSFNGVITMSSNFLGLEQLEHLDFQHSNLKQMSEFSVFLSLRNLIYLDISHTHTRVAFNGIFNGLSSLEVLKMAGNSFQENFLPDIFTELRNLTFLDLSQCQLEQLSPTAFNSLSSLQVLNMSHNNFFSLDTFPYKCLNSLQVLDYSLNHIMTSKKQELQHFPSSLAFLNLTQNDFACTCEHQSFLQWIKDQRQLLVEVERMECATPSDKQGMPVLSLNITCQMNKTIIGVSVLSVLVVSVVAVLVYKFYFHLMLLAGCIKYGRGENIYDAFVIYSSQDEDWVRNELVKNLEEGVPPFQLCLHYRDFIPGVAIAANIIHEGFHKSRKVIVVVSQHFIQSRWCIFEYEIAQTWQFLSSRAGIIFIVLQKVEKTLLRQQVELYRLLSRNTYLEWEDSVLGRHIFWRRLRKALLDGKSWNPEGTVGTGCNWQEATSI

For C=C1[C@@H](C)[C@H]2[C@H](Cc3ccccc3)NC(=O)[C@]23[C@H](OC(C)=O)/C=C/[C@@](C)(O)C(=O)[C@@H](C)C/C=C/[C@H]3[C@@H]1O [cytochalasin D], the “Effect on LPS-induced MD-2 tyrosine phosphorylation” value [1] was “significantly inhibited”.

CO[C@H]1[C@@H](OC)C[C@H](C)[C@@H](OC)C2=CC(=O)C=C(NC(=O)/C(C)=C/C=C\[C@H](OC)[C@@H](OC(N)=O)/C(C)=C/[C@@H]1C)C2=O [herbimycin A] was tested, and the “Effect on LPS-induced MD-2 tyrosine phosphorylation” value [1] was “significantly inhibited”.

B1: MD-2-Y22F: human MD-2 with tyrosine 22 mutated to phenylalanine (protein)
chain: MLPFLFFSTLFSSIFTEAQKQFWVCNSSDASISYTYCDKMQYPISINVNPCIELKRSKGLLHIFYIPRRDLKQLYFNLYITVNTMNLPKRKEVICRGSDDDYSFCRALKGETVNTTISFSFKGIKFSKGKYKCVVEAISGSPEEMLFCLEFVILHQPNSN
modifications: Tyrosine to phenylalanine mutation at position 22 of human MD-2
notes: human MD-2 with tyrosine 22 mutated to phenylalanine
With B1 the “Ability to activate NF-κB upon LPS stimulation compared to wild-type MD-2” value (from here on “Ability … compared to wild-type MD-2”) (TLR4) was “significantly less potent” and the “Decrease in NF-κB activity upon LPS stimulation” value (TLR4) was 50%.

B2: MD-2-Y22FY131F: human MD-2 double mutant, tyrosines 22 and 131 mutated to phenylalanine (protein)
chain: B1 chain with Y131F
modifications: Tyrosine to phenylalanine mutation at position 22 and 131 of human MD-2
notes: human MD-2 double mutant, tyrosines 22 and 131 mutated to phenylalanine
B2 was tested, and the “Ability … compared to wild-type MD-2” value (TLR4) was “do not activate NF-κB as strongly as wild-type MD-2”.

B3: MD-2-Y131F: human MD-2 with tyrosine 131 mutated to phenylalanine (protein)
chain: B1 chain with F22Y, Y131F
modifications: Tyrosine to phenylalanine mutation at position 131 of human MD-2
notes: human MD-2 with tyrosine 131 mutated to phenylalanine
In the case of B3, the “Ability … compared to wild-type MD-2” value (TLR4) is reported as “significantly less potent” and the “Decrease in NF-κB activity upon LPS stimulation” value (TLR4) is reported as 50%.

Reference: US9512196B2, “Short-form human MD-2 as a negative regulator of toll-like receptor 4 signaling” (Cedars-Sinai Medical Center, priority 2008, dated 2016)
